These results are taken from US20150147384A1 (MIT, published 2015).

No end group written: not given here.

For this assay, the target named is P-glycoprotein (UniProt P08183 1-1280). The experiment in a line: cell-based or functional assay.
P-glycoprotein, sequence (P08183 whole entry): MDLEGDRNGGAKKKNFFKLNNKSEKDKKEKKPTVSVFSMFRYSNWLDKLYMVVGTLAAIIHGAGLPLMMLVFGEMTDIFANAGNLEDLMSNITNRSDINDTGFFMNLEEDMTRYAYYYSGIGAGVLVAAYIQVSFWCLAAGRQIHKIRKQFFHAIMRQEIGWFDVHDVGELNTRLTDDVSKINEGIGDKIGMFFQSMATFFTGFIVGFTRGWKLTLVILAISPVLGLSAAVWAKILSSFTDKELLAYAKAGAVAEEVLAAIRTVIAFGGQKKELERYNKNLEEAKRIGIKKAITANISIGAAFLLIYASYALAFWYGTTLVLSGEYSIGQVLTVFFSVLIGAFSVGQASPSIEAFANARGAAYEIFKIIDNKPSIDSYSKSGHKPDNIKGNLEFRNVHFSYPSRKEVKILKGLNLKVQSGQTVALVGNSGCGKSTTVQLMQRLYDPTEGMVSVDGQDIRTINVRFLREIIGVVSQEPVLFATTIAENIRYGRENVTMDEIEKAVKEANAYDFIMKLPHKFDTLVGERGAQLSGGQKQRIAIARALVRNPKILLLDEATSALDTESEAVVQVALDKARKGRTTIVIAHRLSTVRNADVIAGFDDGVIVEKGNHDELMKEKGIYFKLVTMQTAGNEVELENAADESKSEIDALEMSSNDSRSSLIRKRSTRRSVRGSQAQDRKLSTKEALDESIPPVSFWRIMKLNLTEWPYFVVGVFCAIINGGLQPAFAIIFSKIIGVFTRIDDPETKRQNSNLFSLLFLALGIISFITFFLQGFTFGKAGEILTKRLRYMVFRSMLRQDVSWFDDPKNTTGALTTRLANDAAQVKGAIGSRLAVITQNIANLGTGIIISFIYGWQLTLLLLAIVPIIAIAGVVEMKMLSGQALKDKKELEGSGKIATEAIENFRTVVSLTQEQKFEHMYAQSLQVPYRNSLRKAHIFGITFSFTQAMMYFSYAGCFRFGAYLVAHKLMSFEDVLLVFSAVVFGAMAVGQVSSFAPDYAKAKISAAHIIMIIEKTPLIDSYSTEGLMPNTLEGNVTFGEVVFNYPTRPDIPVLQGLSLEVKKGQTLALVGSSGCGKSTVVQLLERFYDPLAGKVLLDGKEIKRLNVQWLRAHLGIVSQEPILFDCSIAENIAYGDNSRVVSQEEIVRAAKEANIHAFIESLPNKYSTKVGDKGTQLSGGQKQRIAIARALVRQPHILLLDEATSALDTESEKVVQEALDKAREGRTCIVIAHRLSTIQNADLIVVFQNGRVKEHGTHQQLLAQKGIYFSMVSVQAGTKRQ
Turning to Ac-AAAAAAD-OH [acetyl-AAAAAAD-COOH], the “Enhancement ratio of Rhodamine-123 transport against the control, peptide 0.02 mg/ml” value (shortened to “Enhancement ratio … peptide 0.02 mg/ml”) was 0.9 ratio; the “Enhancement ratio of Rhodamine-123 transport against the control, peptide concentration given as 2 mg/ml (caption: 0.2 mg/mL)” value (“Enhancement ratio … (caption: 0.2 mg/mL)” for short) was found to be 1.7 ratio; the “Papp of Rhodamine-123 through a Caco-2 monolayer (basolateral to apical), peptide 0.02 mg/ml” value (“Papp … peptide 0.02 mg/ml” for short) is 101 nm/s; the “Papp of Rhodamine-123 through a Caco-2 monolayer (basolateral to apical), peptide concentration given as 2 mg/ml (caption: 0.2 mg/mL)” value (“Papp … (caption: 0.2 mg/mL)” below) is 184 nm/s.
Turning to Ac-AAAAAAK-NH2 [acetyl-AAAAAAK-CONH2], the “Enhancement ratio … peptide 0.02 mg/ml” value was 0.9 ratio; the “Enhancement ratio … (caption: 0.2 mg/mL)” value was determined as 1.7 ratio; the “Papp … peptide 0.02 mg/ml” value is 100 nm/s; the “Papp … (caption: 0.2 mg/mL)” value stood at 182 nm/s.
In the case of KAAAAAA-NH2 [KAAAAAA-CONH2], the “Enhancement ratio … peptide 0.02 mg/ml” value turned out to be 1 ratio; the “Enhancement ratio … (caption: 0.2 mg/mL)” value turned out to be 1 ratio; the “Papp … peptide 0.02 mg/ml” value came to 108 nm/s; the “Papp … (caption: 0.2 mg/mL)” value was 105 nm/s.
In the case of DAAAAAA-OH [DAAAAAA-COOH], the “Enhancement ratio … peptide 0.02 mg/ml” value turned out to be 1.2 ratio; the “Enhancement ratio … (caption: 0.2 mg/mL)” value was determined as 1.4 ratio; the “Papp … peptide 0.02 mg/ml” value came to 130 nm/s; the “Papp … (caption: 0.2 mg/mL)” value amounted to 151 nm/s.
